# Test results as given in article PMC10345191.
# Experiments:
# Assay in all cases: cryo-EM structure
# [1] = molecular target: EDC cross-linked ConSOSL.UFO soluble gp140 Env trimer (GMP) (HIV-1 (group M consensus))
# [2] = molecular target: ConM SOSIP soluble gp140 Env trimer, unmodified (GMP) (HIV-1 (group M consensus))
# [3] = molecular target: EDC cross-linked ConM SOSIP soluble gp140 Env trimer (GMP) (HIV-1 (group M consensus))
# [4] = molecular target: ConSOSL.UFO soluble gp140 Env trimer, unmodified (GMP) (HIV-1 (group M consensus))
substance,measurement,setting,value
EDC cross-linked ConSOSL.UFO soluble gp140 Env trimer (GMP) (complex),stoichiometry N,[1],3
"ConM SOSIP soluble gp140 Env trimer, unmodified (GMP) (complex)",stoichiometry N,[2],3
EDC cross-linked ConM SOSIP soluble gp140 Env trimer (GMP) (complex),stoichiometry N,[3],3
"ConSOSL.UFO soluble gp140 Env trimer, unmodified (GMP) (complex)",stoichiometry N,[4],3
